Measured values: patent US20200071404A1 (Astellas, published 2020)

Key:
[1] = biological target: T1, human CD73 expressed on cells (cancer cell line NCI-H1373 endogenously expressing human CD73); human T cell … (human, UniProt P21589 27-549); test: cell-based or functional assay
T1 sequence (looked up): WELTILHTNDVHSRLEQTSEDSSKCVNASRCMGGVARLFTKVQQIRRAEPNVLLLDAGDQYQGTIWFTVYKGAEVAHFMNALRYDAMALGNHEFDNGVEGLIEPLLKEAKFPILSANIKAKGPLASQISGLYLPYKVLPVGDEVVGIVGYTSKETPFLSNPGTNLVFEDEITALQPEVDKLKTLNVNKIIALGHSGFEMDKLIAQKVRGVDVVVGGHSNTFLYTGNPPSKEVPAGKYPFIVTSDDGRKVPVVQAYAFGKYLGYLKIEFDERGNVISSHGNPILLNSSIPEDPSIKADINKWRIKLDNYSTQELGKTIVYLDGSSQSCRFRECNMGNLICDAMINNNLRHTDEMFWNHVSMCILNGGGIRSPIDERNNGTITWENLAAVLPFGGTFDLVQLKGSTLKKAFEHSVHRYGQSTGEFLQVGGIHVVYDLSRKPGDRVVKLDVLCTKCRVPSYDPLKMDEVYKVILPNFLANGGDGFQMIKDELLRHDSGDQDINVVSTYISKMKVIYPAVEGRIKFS

[2] = biological target: T2, human CD73 protein (BPS Bioscience Inc., 71184) (human, UniProt P21589 27-547, limits assumed); test: ELISA, human CD73 protein immobilised on plate, first run
T2 sequence (looked up): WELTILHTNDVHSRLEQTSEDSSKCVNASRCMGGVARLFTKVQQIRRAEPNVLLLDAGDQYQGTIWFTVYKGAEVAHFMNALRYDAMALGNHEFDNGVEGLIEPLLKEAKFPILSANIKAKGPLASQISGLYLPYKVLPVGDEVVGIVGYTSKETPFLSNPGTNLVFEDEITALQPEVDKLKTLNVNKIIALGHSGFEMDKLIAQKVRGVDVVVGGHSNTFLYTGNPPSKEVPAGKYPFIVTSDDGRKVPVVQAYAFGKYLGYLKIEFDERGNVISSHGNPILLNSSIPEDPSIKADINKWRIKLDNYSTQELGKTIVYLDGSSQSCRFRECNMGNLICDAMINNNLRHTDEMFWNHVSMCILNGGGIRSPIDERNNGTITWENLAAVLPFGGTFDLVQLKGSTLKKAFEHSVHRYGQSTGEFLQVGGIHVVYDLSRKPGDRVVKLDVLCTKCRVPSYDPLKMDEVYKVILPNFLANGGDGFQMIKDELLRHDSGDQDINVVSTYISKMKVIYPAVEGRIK
Experimental: (§1) In order to evaluate the binding activity of CDS-1, CDS-3, CDS-6, CDS-7, and CDS-8 acquired in Example 1 to human CD73, the ELISA was performed using a human CD73 protein. The human CD73 protein (BPS Bioscience Inc., 71184) diluted in PBS (Life Technologies, Inc.) to have a concentration of 4 μg/mL was added to a MaxiSorp 384-well plate Clear (Thermo Fisher Scientific Inc.) by an amount of 20 μL/well, and then immobilized overnight at a temperature of 4° C. The next day, the resultant was washed with a wash solution (0.05% Tween-20 containing Tris-buffered saline (TBS)) once, Blocking One (Nacalai tesque, Inc.) was added thereto in an amount of 100 μL/well, and the resultant was blocked at room temperature for 30 minutes. The resultant was washed with the wash solution once again, and the purified CDS-1, the purified CDS-3, the purified CDS-6, the purified CDS-7, or the purified CDS-8 prepared in Example 1 was added thereto by an amount of 20 μL/well, respectively. […] The values of absorbance at 450 nm and 540 nm were measured by Infinite M200 PRO (TECAN Inc.), and EC₅₀ values of CDS-1, CDS-3, CDS-6, CDS-7, and CDS-8 with respect to the human CD73 protein were calculated. In calculation of the EC₅₀ values, the ordinate represents a difference in the measurement values of absorbance at 450 nm and 540 nm, and the abscissa represents an antibody concentration value.

[3] = biological target: T2, human CD73 protein (BPS Bioscience …); test: ELISA, human CD73 protein immobilised on plate, second run
Experimental: as §1, with “respectively. These purified antibodies were diluted using a reaction buffer obtained by mixing the same amount of PBS and Blocking One, and dilution was performed in 12 steps from 10 μg/mL to 56 pg/mL. The resultant was reacted at room temperature for 1 hour, and then washed three times with a wash solution. 20 μL/well of a human IgG-heavy and light chain cross-adsorbed antibody (Bethyl Laboratories Inc., A80-219P) which had been diluted 4000-fold with a reaction buffer was added thereto, and the resultant was reacted at room temperature for 1 hour. The resultant was washed with a wash solution three times, and 20 μL/well of TMB+substrate-chromogen (DAKO Ltd., 51599) was added thereto.” for “respectively.”

[4] = biological target: T1, human CD73 expressed on cells (cancer …); test: cell-based or functional assay; remark: listed apart in the source
[5] = biological target: T3, human CD73 protein (R&D Systems, Inc., 5795) (human, UniProt P21589 27-549); test: cell-based or functional assay
T3 sequence (looked up): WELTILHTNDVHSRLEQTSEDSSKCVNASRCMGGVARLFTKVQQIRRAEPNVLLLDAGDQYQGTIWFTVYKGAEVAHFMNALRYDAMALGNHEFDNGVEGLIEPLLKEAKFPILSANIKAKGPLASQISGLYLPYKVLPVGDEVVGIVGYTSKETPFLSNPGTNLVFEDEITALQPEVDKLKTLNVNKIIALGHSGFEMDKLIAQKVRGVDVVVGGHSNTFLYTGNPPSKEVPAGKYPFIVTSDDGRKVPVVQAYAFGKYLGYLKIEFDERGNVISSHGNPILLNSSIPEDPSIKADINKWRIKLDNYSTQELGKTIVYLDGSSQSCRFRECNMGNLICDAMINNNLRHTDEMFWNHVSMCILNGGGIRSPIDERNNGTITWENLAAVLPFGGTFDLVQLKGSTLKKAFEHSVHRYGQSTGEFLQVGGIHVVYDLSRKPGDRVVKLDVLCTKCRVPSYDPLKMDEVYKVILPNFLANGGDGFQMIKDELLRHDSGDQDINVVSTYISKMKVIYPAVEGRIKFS

B1: anti-human CD73 antibody CDS-1 (antibody, human IgG1, kappa, L234A L235A)
heavy: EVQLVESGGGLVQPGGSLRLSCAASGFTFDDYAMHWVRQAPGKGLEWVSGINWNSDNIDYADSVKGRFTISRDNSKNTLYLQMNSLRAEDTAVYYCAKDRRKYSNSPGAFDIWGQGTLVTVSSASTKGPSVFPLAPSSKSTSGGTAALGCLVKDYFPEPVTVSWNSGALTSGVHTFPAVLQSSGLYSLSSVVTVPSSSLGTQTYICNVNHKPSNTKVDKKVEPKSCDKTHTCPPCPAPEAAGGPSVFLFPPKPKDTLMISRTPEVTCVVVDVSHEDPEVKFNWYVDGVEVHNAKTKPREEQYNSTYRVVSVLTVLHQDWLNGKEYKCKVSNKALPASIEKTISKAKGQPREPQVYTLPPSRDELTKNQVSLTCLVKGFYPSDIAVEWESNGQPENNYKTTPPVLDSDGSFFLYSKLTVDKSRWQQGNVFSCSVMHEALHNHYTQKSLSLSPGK
light: DIQMTQSPSSLSASVGDRVTITCRASQIIGPWLAWYQQKPGKAPKLLIYRASSLESGVPSRFSGSGSGTDFTLTISSLQPEDFATYYCQQYNSYSPWTFGQGTKVEIKRTVAAPSVFIFPPSDEQLKSGTASVVCLLNNFYPREAKVQWKVDNALQSGNSQESVTEQDSKDSTYSLSSTLTLSKADYEKHKVYACEVTHQGLSSPVTKSFNRGEC
notes: also called purified CDS-1
With B1 the “EC50 (ng/mL), First; inhibition of enzymatic activity of human CD73 in NCI-H1373 cells (adenosine from AMP, LC/MS)” value [1] was 785 ng/mL, the “EC50 (ng/mL), Second; inhibition of enzymatic activity of human CD73 in NCI-H1373 cells (adenosine from AMP, LC/MS)” value [1] was 579 ng/mL and the EC50 [2] was 0.0039 mg/L. For the same binder, the EC50 [3] was 0.0088 mg/L, the “EC50 (ng/mL), IFNγ; recovery of AMP-dependently suppressed human T cell functions” value [4] was 5.8 ng/mL and the “EC50 (ng/mL), Proliferation of T cells; recovery of AMP-dependently suppressed human T cell functions” value [4] was 23.2 ng/mL. For the same binder, the “EC50 (ng/mL), First; inhibition of enzymatic activity of human CD73 protein (adenosine from AMP, LC/MS)” value [5] was 16.8 ng/mL and the “EC50 (ng/mL), Second; inhibition of enzymatic activity of human CD73 protein (adenosine from AMP, LC/MS)” value [5] was 9.2 ng/mL.

B2: CDS-3, fused form in which human IL-7 is fused to the C terminal side of the heavy chain of CDS-1 (antibody, human IgG1, kappa, L234A L235A)
heavy: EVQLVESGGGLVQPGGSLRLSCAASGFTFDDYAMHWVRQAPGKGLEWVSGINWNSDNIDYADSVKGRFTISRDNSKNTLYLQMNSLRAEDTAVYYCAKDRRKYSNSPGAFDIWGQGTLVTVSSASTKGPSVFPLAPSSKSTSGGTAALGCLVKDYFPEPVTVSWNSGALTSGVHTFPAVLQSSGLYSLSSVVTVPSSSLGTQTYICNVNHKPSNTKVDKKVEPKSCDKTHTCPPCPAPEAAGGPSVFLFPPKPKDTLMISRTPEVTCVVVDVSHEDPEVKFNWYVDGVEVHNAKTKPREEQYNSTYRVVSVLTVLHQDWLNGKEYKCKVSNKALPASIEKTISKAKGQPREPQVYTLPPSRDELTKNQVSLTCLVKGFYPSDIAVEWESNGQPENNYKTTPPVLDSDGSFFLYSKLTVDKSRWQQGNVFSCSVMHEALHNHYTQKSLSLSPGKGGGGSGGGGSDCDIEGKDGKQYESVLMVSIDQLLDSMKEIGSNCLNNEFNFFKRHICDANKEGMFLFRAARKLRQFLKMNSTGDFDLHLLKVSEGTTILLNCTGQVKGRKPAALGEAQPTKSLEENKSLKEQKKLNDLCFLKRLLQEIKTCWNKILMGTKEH
light: DIQMTQSPSSLSASVGDRVTITCRASQIIGPWLAWYQQKPGKAPKLLIYRASSLESGVPSRFSGSGSGTDFTLTISSLQPEDFATYYCQQYNSYSPWTFGQGTKVEIKRTVAAPSVFIFPPSDEQLKSGTASVVCLLNNFYPREAKVQWKVDNALQSGNSQESVTEQDSKDSTYSLSSTLTLSKADYEKHKVYACEVTHQGLSSPVTKSFNRGEC
notes: also called purified CDS-3
B2 was tested, and the “EC50 (ng/mL), Second; inhibition of enzymatic activity of human CD73 in NCI-H1373 cells (adenosine from AMP, LC/MS)” value [1] was 455 ng/mL, the EC50 [3] was 0.0209 mg/L and the “EC50 (ng/mL), Second; inhibition of enzymatic activity of human CD73 protein (adenosine from AMP, LC/MS)” value [5] was 19.4 ng/mL.

B3: CDS-6, fused form in which human IL-7 variant is fused to the C terminal side of the heavy chain of CDS-1 (antibody, human IgG1, kappa, L234A L235A)
heavy: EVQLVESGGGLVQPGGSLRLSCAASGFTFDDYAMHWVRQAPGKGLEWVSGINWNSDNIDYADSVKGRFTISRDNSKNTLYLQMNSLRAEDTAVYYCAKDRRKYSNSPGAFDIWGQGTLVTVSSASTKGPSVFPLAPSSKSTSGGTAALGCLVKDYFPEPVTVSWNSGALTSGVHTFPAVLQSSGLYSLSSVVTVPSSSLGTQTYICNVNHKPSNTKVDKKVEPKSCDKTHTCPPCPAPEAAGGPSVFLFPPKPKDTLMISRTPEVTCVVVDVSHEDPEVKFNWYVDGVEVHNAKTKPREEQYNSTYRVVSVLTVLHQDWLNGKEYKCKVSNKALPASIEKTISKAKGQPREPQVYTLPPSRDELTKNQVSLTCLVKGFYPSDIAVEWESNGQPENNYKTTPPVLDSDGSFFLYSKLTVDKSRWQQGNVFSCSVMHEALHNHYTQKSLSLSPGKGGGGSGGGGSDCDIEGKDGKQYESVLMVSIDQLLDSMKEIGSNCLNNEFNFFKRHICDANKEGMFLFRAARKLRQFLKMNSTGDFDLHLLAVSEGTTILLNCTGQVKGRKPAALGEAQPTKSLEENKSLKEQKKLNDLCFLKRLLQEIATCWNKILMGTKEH
light: DIQMTQSPSSLSASVGDRVTITCRASQIIGPWLAWYQQKPGKAPKLLIYRASSLESGVPSRFSGSGSGTDFTLTISSLQPEDFATYYCQQYNSYSPWTFGQGTKVEIKRTVAAPSVFIFPPSDEQLKSGTASVVCLLNNFYPREAKVQWKVDNALQSGNSQESVTEQDSKDSTYSLSSTLTLSKADYEKHKVYACEVTHQGLSSPVTKSFNRGEC
notes: also called purified CDS-6
For B3, the “EC50 (ng/mL), Second; inhibition of enzymatic activity of human CD73 in NCI-H1373 cells (adenosine from AMP, LC/MS)” value [1] was 678 ng/mL, the EC50 [3] was 0.0196 mg/L and the “EC50 (ng/mL), Second; inhibition of enzymatic activity of human CD73 protein (adenosine from AMP, LC/MS)” value [5] was 20.4 ng/mL.
